Measured values from patent publication US20200040086A1 (BERLIN CHEMIE, published 2020).

Tests used:
Test in all cases: peptide microarray of 8mer LY75 peptides, LY75_A1 at 1 µg/mL, anti-human IgG Alexa 647
TSCSERHF = molecular target: T1, TSCSERHF
T1 construct: 8mer of LY75 on the peptide microarray, chart Region 6
T1 peptide: TSCSERHF
Procedure: (§1) The peptide microarray analysis was performed by LC Sciences, Houston Tex., in brief the method comprised the following steps:—Contiguous 8mer peptides of LY75 protein having […] spanning residues 216 to 1666 of the full length LY75 protein were synthesized and immobilized on a microarray chip. The chip comprised three panels such that the experiment was performed in triplicate. The microarray was addressed with LY75_A1 to identify the peptides to which the antibody bound. The binding assay was performed under the following conditions:—
(§2) The microarray comprising the contiguous peptides in triplicate was washed with 1 mL of binding buffer at 4° C. for 20 min. It was then incubated with 1 μg/mL LY75_A1 in binding buffer (pH 7.0) at 4° C. for 2 hrs. The array was again washed with 0.5 mL of washing buffer at 4° C. for 30 min then incubated with 25 ng/mL anti-human IgG Alexa 647 conjugate in binding buffer (pH 7.0) at 4° C. for 1 hr. The array was again washed with 0.5 mL of washing buffer at 4° C. for 30 min.

WHRFPVTF = molecular target: T2, WHRFPVTF
T2 construct: 8mer of LY75 on the peptide microarray, chart Region 4
T2 peptide: WHRFPVTF
Procedure: as §1, §2

PIDDHFTY = molecular target: T3, PIDDHFTY
T3 construct: 8mer of LY75 on the peptide microarray, chart Region 4
T3 peptide: PIDDHFTY
Procedure: as §1, §2

PWHRFPVT = molecular target: T4, PWHRFPVT
T4 construct: 8mer of LY75 on the peptide microarray, chart Region 4
T4 peptide: PWHRFPVT
Procedure: as §1, §2

DHFTYSRY = molecular target: T5, DHFTYSRY
T5 construct: 8mer of LY75 on the peptide microarray, chart Region 4
T5 peptide: DHFTYSRY
Procedure: as §1, §2

EFIYLRPF = molecular target: T6, EFIYLRPF
T6 construct: 8mer of LY75 on the peptide microarray, chart Region 3
T6 peptide: EFIYLRPF
Procedure: as §1, §2

EAVYFHQH = molecular target: T7, EAVYFHQH
T7 construct: 8mer of LY75 on the peptide microarray, chart Region 8
T7 peptide: EAVYFHQH
Procedure: as §1, §2

RWIQYKGH = molecular target: T8, RWIQYKGH
T8 construct: 8mer of LY75 on the peptide microarray, chart Region 10
T8 peptide: RWIQYKGH
Procedure: as §1, §2

VYFHQHSI = molecular target: T9, VYFHQHSI
T9 construct: 8mer of LY75 on the peptide microarray, chart Region 8
T9 peptide: VYFHQHSI
Procedure: as §1, §2

SLSCYKVF = molecular target: T10, SLSCYKVF
T10 construct: 8mer of LY75 on the peptide microarray, chart Region 2
T10 peptide: SLSCYKVF
Procedure: as §1, §2

KLSRLTYS = molecular target: T11, KLSRLTYS
T11 construct: 8mer of LY75 on the peptide microarray, chart Region 9
T11 peptide: KLSRLTYS
Procedure: as §1, §2

YKSDQALH = molecular target: T12, YKSDQALH
T12 construct: 8mer of LY75 on the peptide microarray, chart Region 10
T12 peptide: YKSDQALH
Procedure: as §1, §2

LNNLYKII = molecular target: T13, LNNLYKII
T13 construct: 8mer of LY75 on the peptide microarray, chart Region 7
T13 peptide: LNNLYKII
Procedure: as §1, §2

GSRWIQYK = molecular target: T14, GSRWIQYK
T14 construct: 8mer of LY75 on the peptide microarray, chart Region 10
T14 peptide: GSRWIQYK
Procedure: as §1, §2

LTYSNFHP = molecular target: T15, LTYSNFHP
T15 construct: 8mer of LY75 on the peptide microarray, chart Region 5
T15 peptide: LTYSNFHP
Procedure: as §1, §2

SCSERHFV = molecular target: T16, SCSERHFV
T16 construct: 8mer of LY75 on the peptide microarray, chart Region 6
T16 peptide: SCSERHFV
Procedure: as §1, §2

LSCYKVFH = molecular target: T17, LSCYKVFH
T17 construct: 8mer of LY75 on the peptide microarray, chart Region 2
T17 peptide: LSCYKVFH
Procedure: as §1, §2

RELTYSNF = molecular target: T18, RELTYSNF
T18 construct: 8mer of LY75 on the peptide microarray, chart Region 5
T18 peptide: RELTYSNF
Procedure: as §1, §2

HFTYSRYP = molecular target: T19, HFTYSRYP
T19 construct: 8mer of LY75 on the peptide microarray, chart Region 4
T19 peptide: HFTYSRYP
Procedure: as §1, §2

QYKGHCYK = molecular target: T20, QYKGHCYK
T20 construct: 8mer of LY75 on the peptide microarray, chart Region 10
T20 peptide: QYKGHCYK
Procedure: as §1, §2

SRYPWHRF = molecular target: T21, SRYPWHRF
T21 construct: 8mer of LY75 on the peptide microarray, chart Region 4
T21 peptide: SRYPWHRF
Procedure: as §1, §2

TYSNFHPL = molecular target: T22, TYSNFHPL
T22 construct: 8mer of LY75 on the peptide microarray, chart Region 5
T22 peptide: TYSNFHPL
Procedure: as §1, §2

RRGWHFYD = molecular target: T23, RRGWHFYD
T23 construct: 8mer of LY75 on the peptide microarray, chart Region 3
T23 peptide: RRGWHFYD
Procedure: as §1, §2

FTSCSERH = molecular target: T24, FTSCSERH
T24 construct: 8mer of LY75 on the peptide microarray, chart Region 6
T24 peptide: FTSCSERH
Procedure: as §1, §2

Measured: binding result

B1: LY75_A1 (antibody, V domains shown)
VH: EVQLVESGGGLVKPGGSLRLSCAASGFTYSNAWMSWVRQAPGKGLEWVGRIKSKTDGGTTDYAAPVQGRFTISRDDSKNTLYLQMNSLKTEDTAVYYCTIFGVVSFDYWGQGTLVTVSS
VL: DVQMTQSPSSLSASVGDRVTITCRASQSISDYLSWYQQRPGKAPNLLIYAASNLKTGVPSRFSGSGSGTDFTLTISTLQPEDFATYYCQQSYRSPWTFGQGTKVEIKR
notes: detected with anti-human IgG in the microarray; also called antibody LY75_A1; LY75_A1 monoclonal antibody
binds: all assays above
